Reference: patent publication US20070161078A1

Columns and labels:
[1] = biological target: MBP.NS1 H1N1 (RSEV) (influenza A H1N1) (UniProt A3DRP6); assay: G assay titration
[2] = biological target: MBP.NS1 H3N2 (RSKV) (influenza A H3N2) (UniProt Q67253); assay: G assay titration
[3] = biological target: MBP.NS1 H3N2 (RSKV) (influenza A H3N2) (UniProt Q67253); assay: titration, direct binding sandwich assay
[4] = biological target: Peptide 1958 H5N1A (EPEV) (influenza A H5N1); assay: G assay titration
[5] = biological target: MBP.NS1 H5N1A (EPEV) (influenza A H5N1) (UniProt O56264); assay: G assay titration
[6] = biological target: MBP.NS1 H5N1B (ESEV) (influenza A H5N1) (UniProt Q6DP28); assay: G assay titration
[7] = biological target: MBP.NS1 H1N1 (RSEV) (influenza A H1N1) (UniProt A3DRP6); assay: direct binding assay titration
[8] = biological target: MBP.NS1 H3N2 (RSKV) (influenza A H3N2) (UniProt Q67253); assay: direct binding assay titration
[9] = biological target: MBP.NS1 H5N1A (EPEV) (influenza A H5N1) (UniProt O56264); assay: direct binding assay titration
[10] = biological target: MBP.NS1 H5N1B (ESEV) (influenza A H5N1) (UniProt Q6DP28); assay: direct binding assay titration
[11] = biological target: MBP.NS1 H1N1 (RSEV) (influenza A H1N1) (UniProt A3DRP6); assay: titration, direct binding sandwich assay
[12] = biological target: MBP.NS1 H5N1A (EPEV) (influenza A H5N1) (UniProt O56264); assay: titration, direct binding sandwich assay
[13] = biological target: MBP.NS1 H5N1B (ESEV) (influenza A H5N1) (UniProt Q6DP28); assay: titration, direct binding sandwich assay

Row | Substance | EC50 [1] | EC50 [2] | EC50 [4] | other results
1 | INADL d8 (from UniProt Q8NI35 1431-1525) | 3.2 µg/mL | 0.9 µg/mL | – | EC50 [3]: 0.869 µg/mL
2 | MAST2 d1 (from UniProt Q6P0Q8 1098-1197) | 2 µg/mL | > 50 µg/mL | 5.5 µg/mL | –
3 | Magi3 d1 (from UniProt Q5TCQ9 18-106) | 3.1 µg/mL | 3 µg/mL | – | –
4 | NeDLG d1,2 (from UniProt Q92796 124-316) | 1.1 µg/mL | > 50 µg/mL | – | –
5 | Outer Membrane Protein (from UniProt P08515 1-218) | 1.2 µg/mL | 13 µg/mL | – | EC50 [5]: 27 µg/mL; EC50 [6]: 0.2 µg/mL; EC50 [7]: 6 µg/mL; EC50 [8]: 3 µg/mL; EC50 [9]: 12.5 µg/mL; EC50 [10]: 0.8 µg/mL; EC50 [11]: 1.25 µg/mL; EC50 [12]: 12.6 µg/mL; EC50 [13]: 0.18 µg/mL
6 | PSD95 d2 (from UniProt P31016 160-246) | – | – | 3.8 µg/mL | –
